T1: BCMA on BCMA-positive multiple myeloma tumor lines RPMI-8226 and MM1.S (human, UniProt Q02223 1-184)
T1 sequence (looked up): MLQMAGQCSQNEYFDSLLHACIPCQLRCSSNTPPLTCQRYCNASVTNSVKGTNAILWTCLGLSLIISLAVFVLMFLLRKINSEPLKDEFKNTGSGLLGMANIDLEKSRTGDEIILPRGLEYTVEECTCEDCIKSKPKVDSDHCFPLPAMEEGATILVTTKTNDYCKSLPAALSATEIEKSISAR

T2: recombinant human BCMA (ectodomain)-Fc (human, UniProt Q02223 1-54)
T2 construct: extracellular domain; also called BCMA-Fc; BCMA-Fc peptide; not shown: Fc part
T2 sequence (looked up): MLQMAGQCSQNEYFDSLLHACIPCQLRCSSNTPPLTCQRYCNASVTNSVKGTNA


These binders were tested against T1, BCMA on BCMA-positive multiple myeloma … (assay: cell-based or functional assay).

Row | Binder | tumor lysis of RPMI-8226-luc, luciferase-based killing assay, E:T 5 [%]
1 | BCMA CAR construct with ScFv sequence 3 (MTB-3) (other, not shown: large carriers) EVQLVESGGGVVQPGGSLRLSCAASGFTFSSYGMHWVRQAPGKGLEWVAFIRYDGSNKYYADSVKGRFTISRDNSKNTLYLQMNSLRAEDTAVYYCAKDDYGGNSEGDYWGQGTLVTVSSGGGGSGGGGSGGGGSEIVLTQSPATLSVSLGERATLSCRASQSVSNSLAWYQQKPGQAPRLLIYDASTRATGIPARFSGSGSGTEFTLTISSLQPEDFATYFCQQTYSPPITFGQGTRLEIKR | > 40
2 | BCMA CAR construct with ScFv sequence 49 (MTB-49) (other, not shown: large carriers) EVQLVESGGGVVQPGRSLRLSCAASGFTFSSYGMHWVRQAPGKGLEWVAFIRYDGSNKYYADSVKGRFTISRDNSKNTLYLQMNSLRAEDTAVYYCVSDDYGGNSGTSYWGQGTLVTVSSGGGGSGGGGSGGGGSDIQMTQSPSSLSASVGDRVTITCQASQDISNYLNWYQQKPGKAPKLLIYDASNLETGVPSRFSGSGSGTDFTLTISSLQPEDFATYYCQQSYSTPVTFGGGTKLTVLG | > 40
3 | BCMA CAR construct with ScFv sequence 50 (MTB-50) (other, not shown: large carriers) EVQLVQSGGGVVRPGGSLRLSCAASGFTFSTYEMNWVRQAPGKGLEWLAYIGGSGSPIYYADSVRGRFTISRDNTKNSLFLQMSSLRAEDTAVYYCVEGWFDKWGLGTLVTVSSGGGGSGGGGSGGGGSDIQLTQSPSTLSASVGDRVTITCRASQSISSYLNWYQQKPGKAPKLLIYDASNLETGVPSRFSGSGSGTDFTLTISSLQPEDFATYYCQQSYSTPYTFGQGTKLEIKR | > 40
4 | CAR D0099 (Ef1a-BCMA sequence 4-12 CD8 BBz) (other) QVQLVQSGGGVVQPGGSLRLSCAASGFTFSSYVIHWVRQAPGKGLEWVAAISHDGSNKYYADSVKGRFTISRDNSKNTLYLQMSSLSAEDTAMYYCVKTSSDYYYAYWGQGTLVTVSSGGGGSGGGGSGGGGSQTVVTQEPSFSVSPGGTVTLTCGLSSGSVSTGNSPTWYQQTPGQAPRTLIYSTNTRSSGVPDRFSGSILGNKAALTITGAQADDESDYYCVLYMGSGYWVFGGGTKVTVLGAAATTTPAPRPPTPAPTIASQPLSLRPEACRPAAGGAVHTRGLDFACDIYIWAPLAGTCGVLLLSLVITLYCKRGRKKLLYIFKQPFMRPVQTTQEEDGCSCRFPEEEEGGCELRVKFSRSADAPAYQQGQNQLYNELNLGRREEYDVLDKRRGRDPEMGGKPRRKNPQEGLYNELQKDKMAEAYSEIGMKGERRRGKGHDGLYQGLSTATKDTYDALHMQALPPR | > 40
5 | CAR D0100 (Ef1a-BCMA sequence 4-45 CD8 BBz) (other) EVQLVQSGAEVKKPGASVKVSCKASGYTSTSYYMHWVRQAPGQGLEWMGIINPSGGSTSYAQKFQGRVTMTRDTSTSTVYMELSSLRSEDTAVYYCARDLGDGAFDIWGQGTMVTVSSGGGGSGGGGSGGGGSDIQMTQSLSSLSASVGDRVTIACRASQTISRYLNWYQQKPGKAPKLLIYAASSLQSGVSSRFSGSGSGTEFTLTISSLQPEDFATYFCQQTYSPPITFGQGTRLEIKRAAATTTPAPRPPTPAPTIASQPLSLRPEACRPAAGGAVHTRGLDFACDIYIWAPLAGTCGVLLLSLVITLYCKRGRKKLLYIFKQPFMRPVQTTQEEDGCSCRFPEEEEGGCELRVKFSRSADAPAYQQGQNQLYNELNLGRREEYDVLDKRRGRDPEMGGKPRRKNPQEGLYNELQKDKMAEAYSEIGMKGERRRGKGHDGLYQGLSTATKDTYDALHMQALPPR | > 40
6 | BCMA CAR construct with ScFv sequence 2 (MTB-2) (other, not shown: large carriers) EVQLVQSGGGLVQPGGSLRLSCAASGFTFSSYWMSWVRQAPGKGLEWVSGINGSGDRTYYADSVKGRFTISRDNSKNTLYLQMNSLRAEDTAVYYCANYNYDDNSGYGLGQGTLVTVSSGGGGSGGGGSGGGGSQSVLTQPPSVSVAPGKTARITCGGNNIGSKSVHWYQQKPGQAPVLVIYDDSDRPSGIPERFSGSNSGNTATLTISRVEAGDEADYYCQVWDSSSDHWVFGGGTKVTVLG | ≤ 40
7 | BCMA CAR construct with ScFv sequence 14 (MTB-14) (other, not shown: large carriers) EVQLVESGGGVVQPGRSLRLSCAASGFTFSSYGMHWVRQAPGKGLEWVAFIRYDGSNKYYADSVKGRFTISRDNSKNTLYLQMNSLRAEDTAVYYCVSDDYGGNSGTSYWGQGTLVTVSSGGGGSGGGGSGGGGSDIQMTQSPSSLSASVGDRVTITCQASQDISNYLNWYQQKPGKAPKLLIYDASNLETGVPSRFSGSGSGTDFTLTISSLQPEDFATYYCQQSYSTPVTFGGGTKLTVLG | > 40
8 | CAR D0085 (Ef1a-BCMA sequence 16 CD8 BBz) (other) EVQLVQSGGGVVQPGGSLRLSCAASGFTFSSYGMHWVRQAPGKGLEWVAFIRYDGSNKYYADSVKGRFTISRDNSKNTLYLQMNSLRAEDTAVYYCARDLNDYGDPPPYWGQGTLVTVSSGGGGSGGGGSGGGGSDIQMTQSPSSLSASVGDRVTITCRASQSISSYLNWYQQKPGKAPKLLIYDASNLETGVSSRFSGSGSGTEFTLTISSLQPEDFATYFCQQTYSPPITFGQGTRLEIKRAAATTTPAPRPPTPAPTIASQPLSLRPEACRPAAGGAVHTRGLDFACDIYIWAPLAGTCGVLLLSLVITLYCKRGRKKLLYIFKQPFMRPVQTTQEEDGCSCRFPEEEEGGCELRVKFSRSADAPAYQQGQNQLYNELNLGRREEYDVLDKRRGRDPEMGGKPRRKNPQEGLYNELQKDKMAEAYSEIGMKGERRRGKGHDGLYQGLSTATKDTYDALHMQALPPR | > 40
9 | BCMA CAR construct with ScFv sequence 28 (MTB-28) (other, not shown: large carriers) QVQLVESGGGVVQPGGSLRLSCAASGFTFSSYGMHWVRQAPGKGLEWVAFIRYDGSNKYYADSVKGRFTISRDNSKNTLYLQMNSLRAEDTAVYYCARDSYSSSGDPRAFDPWGQGTLVTVSSGGGGSGGGGSGGGGSNFMLTQPHSVSESPGKTVTISCTGSSGSIASNYVQWYQQRPGSAPSTVIFEDNQRPSGVPGRFSGSVDRSSNSASLTISGLKTEDEADYYCQSYDSNNRGLFGGGTKVTVLG | > 40
10 | CAR D0086 (Ef1a-BCMA sequence 37 CD8 BBz) (other) EVQLVESGGGLVKPGGSLRLSCAASGFTFSSYGMHWVRQAPGKGLEWVAFIRYDGSNKYYADSVKGRFTISRDNSKNTLYLQMNSLRAEDTAVYYCAKDWEYSGYDAHPGWGQGTLVTVSSGGGGSGGGGSGGGGSDIQLTQSPSSLSASVGDRVTITCRASQGISSALAWYQQKPGKAPKLLIYDASSLESGVPSRFSGSGSGTEFTLTISSLQPEDFATYFCQQTYSPPITFGQGTRLEIKRAAATTTPAPRPPTPAPTIASQPLSLRPEACRPAAGGAVHTRGLDFACDIYIWAPLAGTCGVLLLSLVITLYCKRGRKKLLYIFKQPFMRPVQTTQEEDGCSCRFPEEEEGGCELRVKFSRSADAPAYQQGQNQLYNELNLGRREEYDVLDKRRGRDPEMGGKPRRKNPQEGLYNELQKDKMAEAYSEIGMKGERRRGKGHDGLYQGLSTATKDTYDALHMQALPPR | > 40
11 | BCMA CAR construct with ScFv sequence 39 (MTB-39) (other, not shown: large carriers) EVQLVESGGGVVQPGGSLRLSCAASGFTFSGYGMHWVRQAPGKGLEWVAFIRYDGSNKYYADSVKGRFTISRDNSKNTLYLQMNSLRAEDTAVYYCARDGARNDYWGQGTLVTVSSGGGGSGGGGSGGGGSNFMLTQPHSVSESPGKTVTISCTRSSGSIASNYVQWYQQRPGSAPTTVIYEDNQRPSGVPDRFSGSIDSSSNSASLTISGLKTEDEADYYCQTYDDNNHVIFGGGTQLTVLG | > 40
12 | CAR D0087 (Ef1a-BCMA sequence 40 CD8 BBz) (other) EVQLVQSGGGVVQPGGSLRLSCAASGFTFSSYGMHWVRQAPGKGLEWVAFIRYDGSNKYYADSVKGRFTISRDNSKNTLYLQMNSLRAEDTAVYYCAKEPPEYYYDSSGYSWGQGTLVTVSSGGGGSGGGGSGGGGSDIQLTQSPSSLSASVGDRVTITCQASQDIDTYLNWYQQKPGKAPKLLIYAASSLQSGVSSRFSGSGSGTEFTLTISSLQPEDFATYFCQQTYSPPITFGQGTRLEIKRAAATTTPAPRPPTPAPTIASQPLSLRPEACRPAAGGAVHTRGLDFACDIYIWAPLAGTCGVLLLSLVITLYCKRGRKKLLYIFKQPFMRPVQTTQEEDGCSCRFPEEEEGGCELRVKFSRSADAPAYQQGQNQLYNELNLGRREEYDVLDKRRGRDPEMGGKPRRKNPQEGLYNELQKDKMAEAYSEIGMKGERRRGKGHDGLYQGLSTATKDTYDALHMQALPPR | > 40

The binders below were run against T2, recombinant human BCMA (ectodomain)-Fc (assay: flow cytometry of transduced T cells; staining with recombinant human BCMA Fc chimera then anti-Fc-Alexa Fluor 647 (method in paragraph 320)).
Protocol: To assess the cell surface expression of BCMA CARs, 0.5-1e6 CAR T-cells were resuspended in FACs buffer (Miltenyi Biotec's autoMACS Rinsing Solution+MACS BSA Stock Solution) and incubated with 0.5 ug of recombinant human BCMA Fc Chimera Protein (RNDsystems) for 20 mins at 4° C. Cells were washed twice and re-suspended in FACs buffer and incubated for 20 mins at 4° C. with anti-Fc-Alexa Fluor 647 at 1:200 dilution. Cells were again washed twice and resuspended in FACs buffer and incubated for 20 mins at 4° C. with anti-CD4-Vioblue or anti-CD8-Viogreen (Miltenyi Biotec) at 1:50 dilution and 7AAD at 1:20 dilution. Cells were subsequently washed and analyzed using the MACSQuant® Analyzer 10 flow cytometer (Miltenyi Biotec).

Row | Binder | binding result
13 | CAR D0153 (BCMA 4-1c CD8 BBz) (other, Chimeric antigen receptor on transduced human primary T cells; also called D153; CAR D153) EVQLVETGGGVVQPGGSLRLSCAASGFTFSSYGMHWVRQAPGKGLEWVAFIRYDGSNKYYADSVKGRFTISRDNSKNTLYLQMNSLRAEDTAVYYCAKDWDTYYYDSSGYDRAWGQGTLVTVSSGGGGSGGGGSGGGGSDIQMTQSPSSLSASVGDRVTITCQASQDINNYLNWYQQKPGKAPKLLIYAASSLQSGVSSRFSGSGSGTEFTLTISSLQPEDFATYFCQQTYSPPITFGQGTRLEIKRAAATTTPAPRPPTPAPTIASQPLSLRPEACRPAAGGAVHTRGLDFACDIYIWAPLAGTCGVLLLSLVITLYCKRGRKKLLYIFKQPFMRPVQTTQEEDGCSCRFPEEEEGGCELRVKFSRSADAPAYQQGQNQLYNELNLGRREEYDVLDKRRGRDPEMGGKPRRKNPQEGLYNELQKDKMAEAYSEIGMKGERRRGKGHDGLYQGLSTATKDTYDALHMQALPPR | binds

From US20260015403A1 (LENTIGEN TECHNOLOGY, published 2026)
